Results: paper PMC7251641

Substrate: Nc1ncnc2c1ncn2[C@@H]1O[C@H](COP(=O)(O)OP(=O)(O)OP(=O)(O)O)[C@@H](O)[C@H]1O
Test: real-time fluorescent phosphate-release ATPase assay
Format: biochemical, Saccharomyces cerevisiae
Details: nucleosome-stimulated, 15 nM nucleosomes, 23 °C

B1: SWI/SNF (Saccharomyces cerevisiae S288C) (protein)
chain: MNIPQRQFSNEEVNRCYLRWQHLRNEHGMNAPSVPEFIYLTKVLQFAAKQRQELQMQRQQQGISGSQQNIVPNSSDQAELPNNASSHISASASPHLAPNMQLNGNETFSTSAHQSPIMQTQMPLNSNGGNNMLPQRQSSVGSLNATNFSPTPANNGENAAEKPDNSNHNNLNLNNSELQPQNRSLQEHNIQDSNVMPGSQINSPMPQQAQMQQAQFQAQQAQQAQQAQQAQQAQARLQQGRRLPMTMFTAEQSELLKAQITSLKCLVNRKPIPFEFQAVIQKSINHPPDFKRMLLSLSEFARRRQPTDQNNQSNLNGGNNTQQPGTNSHYNNTNTDNVSGLTRNAPLDSKDENFASVSPAGPSSVHNAKNGTLDKNSQTVSGTPITQTESKKEENETISNVAKTAPNSNKTHTEQNNPPKPQKPVPLNVLQDQYKEGIKVVDIDDPDMMVDSFTMPNISHSNIDYQTLLANSDHAKFTIEPGVLPVGIDTHTATDIYQTLIALNLDTTVNDCLDKLLNDECTESTRENALYDYYALQLLPLQKAVRGHVLQFEWHQNSLLTNTHPNFLSKIRNINVQDALLTNQLYKNHELLKLERKKTEAVARLKSMNKSAINQYNRRQDKKNKRLKFGHRLIATHTNLERDEQKRAEKKAKERLQALKANDEEAYIKLLDQTKDTRITHLLRQTNAFLDSLTRAVKDQQKYTKEMIDSHIKEASEEVDDLSMVPKMKDEEYDDDDDNSNVDYYNVAHRIKEDIKKQPSILVGGTLKDYQIKGLQWMVSLFNNHLNGILADEMGLGKTIQTISLLTYLYEMKNIRGPYLVIVPLSTLSNWSSEFAKWAPTLRTISFKGSPNERKAKQAKIRAGEFDVVLTTFEYIIKERALLSKVKWVHMIIDEGHRMKNAQSKLSLTLNTHYHADYRLILTGTPLQNNLPELWALLNFVLPKIFNSVKSFDEWFNTPFANTGGQDKIELSEEETLLVIRRLHKVLRPFLLRRLKKDVEKELPDKVEKVVKCKMSALQQIMYQQMLKYRRLFIGDQNNKKMVGLRGFNNQIMQLKKICNHPFVFEEVEDQINPTRETNDDIWRVAGKFELLDRILPKLKATGHRVLIFFQMTQIMDIMEDFLRYINIKYLRLDGHTKSDERSELLRLFNAPDSEYLCFILSTRAGGLGLNLQTADTVIIFDTDWNPHQDLQAQDRAHRIGQKNEVRILRLITTNSVEEVILERAYKKLDIDGKVIQAGKFDNKSTSEEQEALLRSLLDAEEERRKKRESGVEEEEELKDSEINEILARNDEEMAVLTRMDEDRSKKEEELGVKSRLLEKSELPDIYSRDIGAELKREESESAAVYNGRGARERKTATYNDNMSEEQWLRQFEVSDDEKNDKQARKQRTKKEDKSEAIDGNGEIKGENIDADNDGPRINNISAEDRADTDLAMNDDDFLSKKRKAGRPRGRPKKVKLEGSENSEPPALESSPVTGDNSPSEDFMDIPKPRTAGKTSVKSARTSTRGRGRGRGRGRGRGRGRGRPPKARNGLDYVRTPAAATSPIDIREKVAKQALDLYHFALNYENEAGRKLSDIFLSKPSKALYPDYYMIIKYPVAFDNINTHIETLAYNSLKETLQDFHLIFSNARIYNTEGSVVYEDSLELEKVVTKKYCEIMGDNSQLDFTEFDEQYGTRPLVLPPVVTSSVAESFTDEADSSMTEASV
Km: 80.5 µM
